Reference: patent US20250263467A1

Biological target: SARS-CoV-2 Spike protein on pseudotyped virus (SARS-CoV-2 (Wuhan-Hu-1)) (UniProt P0DTC2)
Experiment: cell-based or functional assay

Substance | maximum neutralization, VSV pseudotype, 293T ACE2 cells | maximum neutralization, VSV pseudotype, A549-ACE2-TMPRSS2 clone 10 cells | maximum neutralization, VSV pseudotype, Huh7 cells | maximum neutralization, VSV pseudotype, MRC5-ACE2-TMPRSS2 cells | maximum neutralization, VSV pseudotype, Vero E6-TMPRSS2 cells | maximum neutralization, VSV pseudotype, Vero E6 cells | EC50, neutralization of pseudotyped virus
S309 rIgG1-LS (antibody) | 34% | 42% | 78% | 45% | 96% | > 99% | 
sotrovimab (antibody) |  |  |  |  |  |  | 0.0241 µg/mL
